IntAct's records for PubMed 12620186

Target: wipf1_human WIPF1 (UniProt O43516)
Sequence (O43516 whole entry): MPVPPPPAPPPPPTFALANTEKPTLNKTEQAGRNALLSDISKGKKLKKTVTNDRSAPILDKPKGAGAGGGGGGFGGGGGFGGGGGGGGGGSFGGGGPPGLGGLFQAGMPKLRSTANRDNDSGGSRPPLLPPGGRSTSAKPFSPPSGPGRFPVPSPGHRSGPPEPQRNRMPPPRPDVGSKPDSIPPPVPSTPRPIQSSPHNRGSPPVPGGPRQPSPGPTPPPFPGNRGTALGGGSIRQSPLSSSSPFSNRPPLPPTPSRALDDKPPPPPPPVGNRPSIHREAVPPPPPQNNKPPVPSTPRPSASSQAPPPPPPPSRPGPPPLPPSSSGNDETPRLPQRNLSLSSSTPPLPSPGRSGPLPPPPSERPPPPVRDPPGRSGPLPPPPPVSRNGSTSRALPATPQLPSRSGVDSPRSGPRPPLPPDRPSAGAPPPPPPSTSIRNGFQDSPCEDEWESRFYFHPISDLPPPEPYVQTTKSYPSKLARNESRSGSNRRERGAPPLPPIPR

Src substrate cortactin (Mus musculus), Q60598 W526K, sequence (Q60598 whole entry W526K): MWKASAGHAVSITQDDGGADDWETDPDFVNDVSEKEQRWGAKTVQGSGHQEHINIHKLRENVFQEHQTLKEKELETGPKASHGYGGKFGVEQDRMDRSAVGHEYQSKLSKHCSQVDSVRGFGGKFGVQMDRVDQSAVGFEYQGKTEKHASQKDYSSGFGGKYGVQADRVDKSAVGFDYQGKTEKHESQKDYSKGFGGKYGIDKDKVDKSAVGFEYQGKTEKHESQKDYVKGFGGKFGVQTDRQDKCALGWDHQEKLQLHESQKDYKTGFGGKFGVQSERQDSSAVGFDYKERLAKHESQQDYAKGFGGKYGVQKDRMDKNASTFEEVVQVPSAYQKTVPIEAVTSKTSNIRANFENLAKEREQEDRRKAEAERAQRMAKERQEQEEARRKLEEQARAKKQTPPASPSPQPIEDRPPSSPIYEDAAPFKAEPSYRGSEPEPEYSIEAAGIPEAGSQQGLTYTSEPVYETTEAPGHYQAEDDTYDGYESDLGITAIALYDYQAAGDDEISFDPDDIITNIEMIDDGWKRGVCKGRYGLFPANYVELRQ

- effect of a mutation on the interaction: disrupting interaction
Substance: Src substrate cortactin (Mus musculus), Q60598 W526K
